Data taken from the supplement of paper PMC9112550, “Optimization of the antimicrobial peptide Bac7 by deep mutational scanning” (BMC Biology, 2022).

system: Escherichia coli TOP10; test: shrunken log2 fold change of peptide-encoding DNA abundance (4.5 h post-induction vs induction); higher = less antimicrobial activity (less host growth inhibition); details: time post-induction: 4.5 h; library: site-saturation at positions 5, 18, 19, 20
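Also: peptides expressed intracellularly from a pBAD plasmid library in pooled LB shake-flask culture, induced with 0.3% L-arabinose, DNA abundance read by NGS, three biological replicates, DESeq2 with apeglm shrinkage.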

Sequence	shrunken log2 fold change
RRIRPRPPRLPRPRPRPGVHPRP	-0.0724
RRIRYRPPRLPRPRPRPVETPRP	-0.0299
RRIRMRPPRLPRPRPRPEHIPRP	-0.0225
RRIRVRPPRLPRPRPRPACEPRP	0.165
RRIRCRPPRLPRPRPRPYWFPRP	-0.74
RRIRIRPPRLPRPRPRPEPKPRP	0.475
RRIRYRPPRLPRPRPRPDVPPRP	-0.0784
RRIRLRPPRLPRPRPRPVYMPRP	-0.283
RRIRTRPPRLPRPRPRPHDKPRP	-0.51
RRIRDRPPRLPRPRPRPMSKPRP	0.101
RRIRNRPPRLPRPRPRPFVMPRP	-0.0984
RRIRPRPPRLPRPRPRPKECPRP	0.241
RRIRKRPPRLPRPRPRPWAVPRP	0.192
RRIRPRPPRLPRPRPRPQHIPRP	-0.648
RRIRERPPRLPRPRPRPIKIPRP	-0.681
RRIRYRPPRLPRPRPRPKCSPRP	-0.433
RRIRGRPPRLPRPRPRPKILPRP	0.229
RRIRFRPPRLPRPRPRPCVCPRP	0.143
RRIRLRPPRLPRPRPRPSYHPRP	-0.686
RRIRWRPPRLPRPRPRPCPEPRP	0.0311
RRIRARPPRLPRPRPRPDEHPRP	0.54
RRIRPRPPRLPRPRPRPMWWPRP	0.189
RRIRTRPPRLPRPRPRPYQDPRP	-0.0173
RRIRMRPPRLPRPRPRPQIFPRP	-0.0615
RRIRLRPPRLPRPRPRPDLSPRP	-0.112

Sequence	shrunken log2 fold change
RRIRARPPRLPRPRPRPASTPRP	0.318
RRIRYRPPRLPRPRPRPNSQPRP	-0.85
RRIRYRPPRLPRPRPRPEMMPRP	-0.0745
RRIRERPPRLPRPRPRPPKHPRP	-0.0654
RRIRMRPPRLPRPRPRPDHWPRP	0.617
RRIRCRPPRLPRPRPRPPLTPRP	0.578
RRIRHRPPRLPRPRPRPYFQPRP	-0.935
RRIRKRPPRLPRPRPRPWMGPRP	-0.0352
RRIRERPPRLPRPRPRPAITPRP	-0.401
RRIRSRPPRLPRPRPRPMLMPRP	0.00173
RRIRCRPPRLPRPRPRPQTWPRP	0.295
RRIRWRPPRLPRPRPRPTDRPRP	-0.0423
RRIRMRPPRLPRPRPRPLGAPRP	1.25
RRIRQRPPRLPRPRPRPLMLPRP	-0.213
RRIRARPPRLPRPRPRPIGRPRP	0.00162
RRIRRRPPRLPRPRPRPVEGPRP	0.268
RRIRGRPPRLPRPRPRPRWSPRP	0.754
RRIRLRPPRLPRPRPRPFITPRP	-0.35
RRIRFRPPRLPRPRPRPRRCPRP	0.143
RRIRNRPPRLPRPRPRPKLFPRP	0.371
RRIRNRPPRLPRPRPRPSFRPRP	0.0751
RRIRLRPPRLPRPRPRPKSCPRP	0.0755
RRIRPRPPRLPRPRPRPSATPRP	0.195
RRIRPRPPRLPRPRPRPCNVPRP	-0.314
RRIRTRPPRLPRPRPRPWKCPRP	-0.0161

Sequence	shrunken log2 fold change
RRIRARPPRLPRPRPRPWGKPRP	0.0748
RRIRERPPRLPRPRPRPMMPPRP	0.0391
RRIRKRPPRLPRPRPRPNCHPRP	-0.131
RRIRHRPPRLPRPRPRPFGVPRP	-0.326
RRIRPRPPRLPRPRPRPPHYPRP	0.457
RRIRERPPRLPRPRPRPEFDPRP	0.039
RRIRDRPPRLPRPRPRPNFCPRP	-0.00997
RRIRVRPPRLPRPRPRPNDCPRP	-0.2
RRIRPRPPRLPRPRPRPKMDPRP	0.0116
RRIRLRPPRLPRPRPRPELHPRP	0.327
RRIRVRPPRLPRPRPRPYDKPRP	-1.05
RRIRCRPPRLPRPRPRPIFQPRP	-0.0452
RRIRGRPPRLPRPRPRPSEIPRP	-0.193
RRIRCRPPRLPRPRPRPHAIPRP	-0.139
RRIRWRPPRLPRPRPRPVQRPRP	0.257
RRIRARPPRLPRPRPRPRHHPRP	0.0585
RRIRMRPPRLPRPRPRPHWSPRP	0.0857
RRIRFRPPRLPRPRPRPLQCPRP	-0.293
RRIRHRPPRLPRPRPRPREVPRP	0.151
RRIRWRPPRLPRPRPRPTAKPRP	0.0717
RRIRGRPPRLPRPRPRPCWGPRP	0.157
RRIRRRPPRLPRPRPRPPTRPRP	0.688
RRIRMRPPRLPRPRPRPMDHPRP	-0.00783
RRIRFRPPRLPRPRPRPMKWPRP	-0.0607
RRIRERPPRLPRPRPRPPCGPRP	0.259
